According to patent publication US20240343809A1 (EXCELMAB, published 2024):
Substitutions are numbered along the chain they refer to.

B1: B7-H3 antibody 5D9 (antibody, V domains shown)
VH: QVQLVQSGAEVKKPGSSVKVSCKASGGTFSNYAINWVRQAPGQGLEWMGGIIPLFGTANYAQKFQGRVTITADESTSTAYMELSSLRSDDTAVYYCARDQVVATSGVNFGMDVWGQGTTVTVSS
VL: DIQMTQEPSLTTSPGGTVTLTCRSSTGAVTTSNYANWVQEKPGQAPRGLIGGTNKRAPGTPARFSGSLIGGKAALTITGVQPEDEAIYFCALWYSNLWVFGGGTKLEIK
notes: Expressed as full antibody (heavy and light chain) in 293F cells, protein A purified, detected with anti-human IgG
B2: Enoblituzumab (antibody, V domains shown)
VH: EVQLVESGGGLVQPGGSLRLSCAASGFTFSSFGMHWVRQAPGKGLEWVAYISSDSSAIYYADTVKGRFTISRDNAKNSLYLQMNSLRDEDTAVYYCGRGRENIYYGSRLDYWGQGTTVTVSS
VL: DIQLTQSPSFLSASVGDRVTITCKASQNVDTNVAWYQQKPGKAPKALIYSASYRYSGVPSRFSGSGSGTDFTLTISSLQPEDFATYYCQQYNNYPFTFGQGTKLEIKR
B3: affinity-matured B7-H3 antibody 46D4 (antibody, V domains shown)
VH: B1 VH with Q100V, A103P, T104R
VL: B1 VL
notes: Full antibody expressed in 293F cells, protein A purified; VH assembled from the framework and CDR entries
B4: affinity-matured B7-H3 antibody 50A6 (antibody, V domains shown)
VH: B1 VH with Q100A, A103P, T104N
VL: B1 VL
notes: as for B3
B5: affinity-matured B7-H3 antibody 44F2 (antibody, V domains shown)
VH: B1 VH with L54G, G56Y, T57S, A58L
VL: B1 VL
notes: as for B3
B6: affinity-matured B7-H3 antibody 45B11 (antibody, V domains shown)
VH: B1 VH with L54M, F55W, G56Q, T57S, A58V
VL: B1 VL
notes: as for B3
B7: affinity-matured B7-H3 antibody 46H9 (antibody, V domains shown)
VH: B1 VH with Q100R, V101E, V102A, A103R, T104E
VL: B1 VL
notes: as for B3
B8: affinity-matured B7-H3 antibody 50A11 (antibody, V domains shown)
VH: B1 VH with A103P, T104R
VL: B1 VL
notes: as for B3
B9: affinity-matured B7-H3 antibody 46H7 (antibody, V domains shown)
VH: B1 VH with Q100R, V101F, V102T, A103P, T104R
VL: B1 VL
notes: as for B3
B10: affinity-matured B7-H3 antibody 42F7 (antibody, V domains shown)
VH: B1 VH with F29R, S30P, N31A, Y32A, A33L
VL: B1 VL
notes: as for B3
B11: affinity-matured B7-H3 antibody 44C5 (antibody, V domains shown)
VH: B1 VH with L54R, T57G, A58V
VL: B1 VL
notes: as for B3
B12: affinity-matured B7-H3 antibody 50E3 (antibody, V domains shown)
VH: B1 VH with Q100V, V101N, V102N, A103P, T104G
VL: B1 VL
notes: as for B3
B13: affinity-matured B7-H3 antibody 43G11 (antibody, V domains shown)
VH: B1 VH with F29L, S30R, N31P, Y32V, A33L
VL: B1 VL
notes: as for B3
B14: affinity-matured B7-H3 antibody 47H4 (antibody, V domains shown)
VH: B1 VH with Q100F, V101D, V102A, A103P, T104G
VL: B1 VL
notes: as for B3
B15: affinity-matured B7-H3 antibody 45F4 (antibody, V domains shown)
VH: B1 VH with G56R, T57S, A58S
VL: B1 VL
notes: as for B3
B16: affinity-matured B7-H3 antibody 50B10 (antibody, V domains shown)
VH: B1 VH with Q100V, V101E, A103F, T104N
VL: B1 VL
notes: as for B3
B17: affinity-matured B7-H3 antibody 43D4 (antibody, V domains shown)
VH: B1 VH with F29S, S30G, N31V, Y32A, A33L
VL: B1 VL
notes: as for B3

target: T1, human B7-H3 antigen, recombinant extracellular domain (ECD) (29-461) (human, UniProt Q5ZPR3 29-461); experiment: ELISA, coated human B7-H3 antigen
T1 construct: range 29-461; Expressed in 293F cells as B7-H3-TEV-cFc-His fusion, cut with TEV protease and cleaned over a nickel column to give the human B7-H3 antigen; also called recombinant human B7-H3 antigen; hB7-H3
T1 sequence (looked up): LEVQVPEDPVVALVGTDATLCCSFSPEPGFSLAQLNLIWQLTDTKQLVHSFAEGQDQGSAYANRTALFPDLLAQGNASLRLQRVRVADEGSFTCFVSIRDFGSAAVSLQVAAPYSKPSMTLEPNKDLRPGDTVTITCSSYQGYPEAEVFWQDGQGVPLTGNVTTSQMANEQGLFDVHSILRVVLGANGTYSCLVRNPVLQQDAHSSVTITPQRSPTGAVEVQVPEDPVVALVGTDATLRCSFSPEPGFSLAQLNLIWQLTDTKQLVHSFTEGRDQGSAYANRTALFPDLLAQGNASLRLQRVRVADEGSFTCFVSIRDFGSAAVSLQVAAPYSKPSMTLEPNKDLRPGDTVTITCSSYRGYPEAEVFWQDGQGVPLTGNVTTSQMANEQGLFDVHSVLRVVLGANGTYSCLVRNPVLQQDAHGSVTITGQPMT
Protocol: (§1) The binding activity of the 5D9 to B7-H3 antigen was analyzed by ELISA. Human B7-H3 antigens were coated on the 96-well plate and placed at 4° C. overnight. The antibody 5D9 and controls were diluted to 10 μg/mL, followed by 4-fold dilution gradients to generate a total of 8 different concentrations. The diluted samples and the wells coated antigen were incubated for 1h. After washing, HRP (horseradish peroxidase)-labeled goat anti-human IgG (H+L) secondary antibody was added to the plate and incubated for 1h. TMB (3,3′,5,5′-tetramethylbenzidine) solution was then added to each well after washing for chromogenesis. The absorbance was measured at OD₄₅₀ₙₘ with a microplate reader. Taking the logarithmic value of the sample concentration as the X-axis, and the absorbance OD₄₅₀ₙₘ value as the Y-axis, a dose-response curve was drawn to calculate the EC₅₀. The EC₅₀ represents the binding activity of the antibody to B7-H3 antigen. A negative control IgG group and a positive antibody Enoblituzumab control group were meanwhile set in the experiment.

| Binder | binding result |
| --- | --- |
| B1 | binds |

target: T1, human B7-H3 antigen, recombinant …; experiment: ELISA, coated human B7-H3 antigen; remark: another data set of the same source
Protocol: as §1
ELISA was used to analyze the binding activity of affinity-matured variants to human B7-H3 antigen. By taking the logarithmic value of the sample concentration as the X-axis, and the absorbance OD₄₅₀ₙₘ value as the Y-axis, a dose-response curve was drawn to calculate the EC₅₀. The EC₅₀ represents the binding activity of the affinity-matured variants to B7-H3 antigen. A positive control Enoblituzumab and a negative control hIgG were set in the experiment.

| Binder | EC50 [µg/mL] |
| --- | --- |
| B2 | 0.0255 |
| B3 | 0.0283 |
| B4 | 0.0247 |
| B5 | 0.0464 |
| B6 | 0.0265 |
| B7 | 0.147 |
| B8 | 0.0339 |
| B9 | 0.039 |
| B10 | 0.0278 |
| B11 | 0.0639 |
| B12 | 0.0418 |
| B13 | 0.0411 |
| B14 | 0.0244 |
| B15 | 0.0219 |
| B16 | 0.0278 |
| B17 | 0.0303 |
